In experiment [1] the target is T1, GFP-MFSD2ACO (N-terminal FLAG-tag/GFP fusion of MFSD2ACO, detergent-solubilised lysate) (human, UniProt Q8NA29 1-543).
T1 construct: The methods say only 'MFSD2A'; also called MFSD2A-GFP; not shown: N-terminal FLAG-tag, GFP and PreScission protease cleavage site
T1 chain: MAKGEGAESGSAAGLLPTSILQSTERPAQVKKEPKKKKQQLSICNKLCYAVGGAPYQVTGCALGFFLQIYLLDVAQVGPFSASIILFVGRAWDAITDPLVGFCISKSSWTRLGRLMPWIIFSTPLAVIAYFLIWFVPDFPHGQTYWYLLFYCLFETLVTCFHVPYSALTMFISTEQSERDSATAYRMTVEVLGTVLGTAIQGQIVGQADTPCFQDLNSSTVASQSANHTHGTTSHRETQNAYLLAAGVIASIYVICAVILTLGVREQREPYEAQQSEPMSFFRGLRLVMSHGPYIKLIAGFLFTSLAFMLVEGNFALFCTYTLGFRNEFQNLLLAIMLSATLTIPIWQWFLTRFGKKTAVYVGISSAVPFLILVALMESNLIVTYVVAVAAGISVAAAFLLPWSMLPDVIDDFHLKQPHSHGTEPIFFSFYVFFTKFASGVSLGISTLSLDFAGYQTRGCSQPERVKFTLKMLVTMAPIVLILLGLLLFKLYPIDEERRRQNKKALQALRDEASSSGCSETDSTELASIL
Nature of the experiment: titration of SYNC2-mCherry lysate onto GFP-MFSD2A captured on anti-FLAG resin in DDM/CHS at 4 °C; eluted mCherry/GFP fluorescence fitted to a quadratic binding equation. As to the method: SYNC2 binding to MFSD2A was assayed in clear lysates of detergent-solubilized HEK-293F cells expressing mCherry (C-terminal) and GFP (N-terminal) fusion constructs of SYNC2 and MFSD2A, respectively, that enable protein quantification. Clear cells lysates were obtained by 1-hour solubilization in lysis buffer containing 50 mM HEPES pH 7.4, 200 mM NaCl, 5% v/v glycerol, 1 mM EDTA, protease-inhibitor cocktail, 1% DDM, and 0.2% CHS, followed by centrifugation (3,800g, 20 min). SYNC2-mCherry and GFP-MFSD2A protein concentrations in lysates were determined using purified standards in a micro-plate reader (CLARIOstar-Plus) set at 570/620 and 470/514 (λexcitation/λemission), respectively. MFSD2A-GFP lysate at 500 nM was incubated with 2 ml anti-FLAG M2 resin for 1 hour, fractionated in 8 equal parts placed on gravity columns and washed with 1 ml of wash buffer (50 mM HEPES pH 7.4, 200 mM NaCl, 5% (v/v) glycerol, 0.03% DDM, and 0.006% CHS). SYNC2-mCherry was added from a calibrated stock at 2 μM, and equilibrated for 1 hour. […] Eluted protein was transferred to a 96-well flat-bottom black plate for quantification of GFP and mCherry fluorescence. SYNC-mCherry fluorescence background was determined from samples with anti-FLAG resin that lack MFSD2A-GFP bound. SYNC2-mCherry subtracted fluorescence was fitted to a quadratic binding equation using Sigma Plot (Systat).

Experiment [2] has as its target T2, MFSD2ACO (thermostable consensus MFSD2A mutant), purified in detergent (human, UniProt Q8NA29 1-543).
T2 construct: Full-length transporter expressed in HEK-293F with an N-terminal FLAG-tag, GFP and PreScission site; also called MFSD2A consensus; MFSD2A consensus design
T2 chain: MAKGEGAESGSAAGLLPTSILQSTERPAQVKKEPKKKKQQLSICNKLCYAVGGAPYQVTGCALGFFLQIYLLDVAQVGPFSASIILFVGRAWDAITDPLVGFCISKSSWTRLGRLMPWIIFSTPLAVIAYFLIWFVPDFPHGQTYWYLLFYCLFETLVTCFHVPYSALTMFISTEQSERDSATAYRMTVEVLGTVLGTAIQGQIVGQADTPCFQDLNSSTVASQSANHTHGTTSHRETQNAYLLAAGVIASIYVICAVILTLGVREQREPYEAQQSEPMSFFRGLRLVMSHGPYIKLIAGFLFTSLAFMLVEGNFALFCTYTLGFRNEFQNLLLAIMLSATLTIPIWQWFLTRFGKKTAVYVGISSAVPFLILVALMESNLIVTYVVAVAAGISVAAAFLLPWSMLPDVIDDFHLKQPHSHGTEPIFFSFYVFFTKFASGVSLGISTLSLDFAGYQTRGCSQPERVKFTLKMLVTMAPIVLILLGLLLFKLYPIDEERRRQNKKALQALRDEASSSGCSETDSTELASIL
The experiment is described as follows: cryo-EM 2D classes and 3D reconstructions of the purified complex; 3.6 Å map of SYNC2SU-CO bound to MFSD2ACO. The source says: For cryo-EM structural determination of MFSD2ACO-SYNC2CO complex, the inventors used SYNC2CO-C43S (SYNC2_CO-C43S) mutant to avoid detachment of surface and transmembrane subunits upon binding to MFSD2ACO. […] However, high flexibility within the complex precluded high-resolution 3D reconstructions. To overcome this problem, the inventors used a smaller box size in order to extract individual components, effectively increasing particle number and sample homogeneity, as it was recently shown in cryo-EM structure determination of human CD20 bound to divalent Fab fragments (Kumar et al., 2020). This approach enabled particle averaging over the three MFSD2ACO molecules in the complex, yielding a cryo-EM map at an overall 3.6 Å resolution of SYNC2_SU-CO bound to MFSD2ACO (FIG. 1F; Table 1; FIG. 7, 8). […] Trimeric SYNC2TM in the post-fusion state was not resolved in 3D cryo-EM reconstructions, likely due to lower number of particles, as well as alignment problems of micelles containing only three flexible transmembrane helices.
MFSD2ACO-SYNC2_CO-C43S purified complex was applied to glow-discharged Au 200 mesh Quantifoil R1.2/1.3 holey carbon grids (Quantifoil), and vitrified using Vitrobot Mark IV (ThermoFisher). Typically, 4 μl of sample at 1.2-1.5 mg/ml were applied to the grids, and the Vitrobot chamber was maintained at 100% humidity and 4° C. […]

Experiment [3] addresses T3, MFSD2ACO expressed in HEK-293T.17 cells (LPC-analog transport assay) (human, UniProt Q8NA29 1-543).
T3 chain: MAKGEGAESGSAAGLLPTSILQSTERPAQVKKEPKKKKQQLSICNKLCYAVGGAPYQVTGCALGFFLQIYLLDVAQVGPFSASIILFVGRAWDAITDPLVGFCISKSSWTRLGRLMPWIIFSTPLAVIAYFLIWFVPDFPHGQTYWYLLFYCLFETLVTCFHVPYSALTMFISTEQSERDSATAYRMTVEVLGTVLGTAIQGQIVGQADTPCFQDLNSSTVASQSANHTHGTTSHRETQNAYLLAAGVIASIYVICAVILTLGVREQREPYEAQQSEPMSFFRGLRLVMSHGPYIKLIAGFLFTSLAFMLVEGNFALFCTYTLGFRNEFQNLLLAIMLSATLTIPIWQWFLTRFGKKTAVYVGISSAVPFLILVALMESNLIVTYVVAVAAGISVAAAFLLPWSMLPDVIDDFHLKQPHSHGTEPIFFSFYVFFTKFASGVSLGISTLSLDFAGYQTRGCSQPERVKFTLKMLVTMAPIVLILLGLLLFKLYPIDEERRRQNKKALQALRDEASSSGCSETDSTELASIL
Nature of the experiment: cell-based or functional assay.

As usually defined, the Kd is the constant that tells how readily two partners part at equilibrium. Read a high Kd as lower affinity.

B1: SYNC2CO-C43S-mCherry (C-terminal mCherry fusion, detergent-solubilised lysate) (ligand)
chain: AYRHPDFPLLEKAQQLLQSTGSPYSTNSWLCTSSSTETPGTAYPASPREWTSIEAELHISYRWDPNLKGLMRPANSLLSTVKQDFPDIRQKPPIFGPIFTNINLMGIAPICVTAKRKNGTNVGTLPSTVCNVTFTVDPNQQTYQTYTHNQFRHQPRFPKPPNITFPQGTLLDKSTRFCQGRPSSCSTRNFWFRPADYNQCLQISNLSSTAEWVLLDQTRNSLFWENKTKGANQSQTPCVQVLAGMTIATSYLGISAVSEFFGTSLTPLFHFHISTCLKTQGAFYICGQSIHQCLPSNWTGTCTIGYVTPDIFIAPGNLSLPIPIYGNSPLPRVRRAIHFIPLLAGLGILAGTGTGIAGITKASLTYSQLSKEIANNIDTMAKALTTMQEQIDSLAAVVLQNRRGLDMLTAAQGGICLALDEKCCFWVNQSGKVQDNIRQLLNQASSLRERATQGWLNWEGTWKWFSWVLPFIGPLVSLLLLLLFGPCLLNLITQFVSSRLQAIKLQTNLSAGRHPRNIQESPF
notes: The methods say only 'SYNC2'; also called SYNC2-mCherry; SYNC-mCherry; not shown: C-terminal mCherry
As for B1, the Kd in experiment [1] was approximately 100 nM.

B2: SYNC2CO-C43S (thermostable consensus SYNC2 mutant with additional mutation C43S), purified in detergent (ligand)
chain: AYRHPDFPLLEKAQQLLQSTGSPYSTNSWLCTSSSTETPGTAYPASPREWTSIEAELHISYRWDPNLKGLMRPANSLLSTVKQDFPDIRQKPPIFGPIFTNINLMGIAPICVTAKRKNGTNVGTLPSTVCNVTFTVDPNQQTYQTYTHNQFRHQPRFPKPPNITFPQGTLLDKSTRFCQGRPSSCSTRNFWFRPADYNQCLQISNLSSTAEWVLLDQTRNSLFWENKTKGANQSQTPCVQVLAGMTIATSYLGISAVSEFFGTSLTPLFHFHISTCLKTQGAFYICGQSIHQCLPSNWTGTCTIGYVTPDIFIAPGNLSLPIPIYGNSPLPRVRRAIHFIPLLAGLGILAGTGTGIAGITKASLTYSQLSKEIANNIDTMAKALTTMQEQIDSLAAVVLQNRRGLDMLTAAQGGICLALDEKCCFWVNQSGKVQDNIRQLLNQASSLRERATQGWLNWEGTWKWFSWVLPFIGPLVSLLLLLLFGPCLLNLITQFVSSRLQAIKLQTNLSAGRHPRNIQESPF
modifications: N-glycans at N133, N146, N177, N220, N241, N247 and N312 (all seven predicted sites carry glycans in the structure)
notes: Trimeric full-length envelope protein; also called SYNC2 consensus C43S; SYNC2SU-CO (its surface subunit as resolved in the cryo-EM map)
In the case of B2, the binding result in experiment [2] is “binds”.

B3: SYNC2SU-CO (soluble thermostable consensus SYNC2 fragment with C43S), purified, C-terminal EPEA-tag (ligand)
chain: AYRHPDFPLLEKAQQLLQSTGSPYSTNSWLCTSSSTETPGTAYPASPREWTSIEAELHISYRWDPNLKGLMRPANSLLSTVKQDFPDIRQKPPIFGPIFTNINLMGIAPICVTAKRKNGTNVGTLPSTVCNVTFTVDPNQQTYQTYTHNQFRHQPRFPKPPNITFPQGTLLDKSTRFCQGRPSSCSTRNFWFRPADYNQCLQISNLSSTAEWVLLDQTRNSLFWENKTKGANQSQTPCVQVLAGMTIATSYLGISAVSEFFGTSLTPLFHFHISTCLKTQGAFYICGQSIHQCLPSNWTGTCTIGYVTPDIFIAPEPEA
In the case of B3, in experiment [3], the “half-maximal inhibitory concentration (IC50) of Na+-dependent LPCNBD transport in cells” value is approximately 200 nM.
